Measurements published in publication PMC4335687 (Growth factors (Chur, Switzerland), 2014).

Molecular target: EphA2 ligand-binding domain, untagged (UniProt P29317)
Experiment: SEC

Chain of EphA2 ligand-binding domain, untagged (P29317 24-206): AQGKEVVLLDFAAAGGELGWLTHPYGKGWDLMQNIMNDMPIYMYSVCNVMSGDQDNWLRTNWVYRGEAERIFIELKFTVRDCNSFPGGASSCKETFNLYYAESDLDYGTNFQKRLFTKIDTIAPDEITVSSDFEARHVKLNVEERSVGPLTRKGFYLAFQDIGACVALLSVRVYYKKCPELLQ

B1: D2 scFv-6xHis (monomeric anti-EphA2 single-chain antibody) (scFv, V domains shown)
VH: EVQLLESGGGLVQPGGSLRLSCAASGFTFSRYWMHWVRQAPGKGLEWVSSISPYDGETNYADSVKGRFTISRDNSKNTLYLQMNSLRAEDTAVYYCARISEWYNWAVDVFDYWGQGTLVTVSS
VL: EIVLTQSPGTLSLSPGERATLSCRASQSVSSSNLAWYQQKPGQAPRLLIYGASSRATGVPDRFSGSGSGTDFTLTISRLEPEDFAVYYCQQSSSYPWTFGQGTKVEIK
- stoichiometry N: 1
